Series [1] can be described thus: Rheological property detection (storage modulus of triggered gel). The series is classed as physicochemical. As to conditions: concentration of 2.5%; after contact with a metallic ion or change pH value. How it is done:
(§1) Peptide solutions with different concentrations were prepared, and an appropriate amount of 10×PBS was added such that the final PBS concentration of the solution was 1×, after the solution was in contact with PBS to be triggered to be gel, the gel was taken out slowly with a spoon and placed onto a rheometer plate. A 40 mm plate was placed leaving the gap of about 450 µm, and kept at 37° C. for 5 minutes under a pressure of 1 pa, and frequency scanning was at 0.1 hz-10 hz. […] The highest concentration of the solution was set with the reference to the highest concentration at which a gel will not form immediately when the peptide was fully dissolved, according to which peptide solutions with a serial of diluted concentrations were prepared to perform storage modulus detections. For peptides represented by ① and ② in which the head and the tail are Pro, the storage modulus were able to reach 1000pa or higher after the PBS triggered the gelation, whereas before gelation, the solution can also maintain good fluidity.

Series [2] in a line: Viscosity testing of peptide solution (rheometer). The series is classed as physicochemical. The following applies: shear rate 10 1/s. The method, then: A peptide solution was prepared, a 50 mm plate was chosen for the rheometer, a 1 mm gap was set, and 2 ml of the peptide solution was taken, and placed in the gap under the plate. The shear rate was set as 10 1/s. Average values were recorded.

Series [3] can be described thus: Fluidity / viscosity of peptide solutions on dissolution (observation). The series is classed as physicochemical. The following applies: for viscosity during dissolution: with increasing concentration. How it is done: as §1
The next series has as its system rabbit back skin wound. The series can be described thus: Rabbit hemostasis experiment on the back. The format is in vivo, New Zealand rabbits. The method, then: Hemostatic procedures: a peptide aqueous solution ① with a concentration of 3% was prepared for rabbit hemostasis on the back. After injection of anesthesia via ear veins in New Zealand rabbits, a skin incision of about 1.5 cm was made on the back, and an incision depth was made until a blood vessel ruptured, and blood flowed out. After the blood flowed out was wiped off with a gauze, the peptide aqueous solution was sprayed onto a wound site immediately, and timing was conducted. In the hemostatic process, oozed blood was wiped constantly with a gauze, until no blood flowed out, and the timing was stopped, and after 1 minute, excess gel was removed, and the wound was observed whether the blood further oozed out.

The test system of a further series is liver wound. Briefly: Rabbit liver hemostasis experiment. The format is in vivo. How it is done:
Hemostatic process: a peptide aqueous solution ① with a concentration of 3% was prepared, abdomen was opened after anesthesia of the rabbit, liver was exposed, and after the hepatic vessel was lacerated, the blood flowed out. After the blood flowed out was wiped off with a gauze, the peptide aqueous solution was sprayed onto the wound site immediately, and timing was conducted.

In series [4] the test system is stomach mucosa (posterior submucosal layer). The series can be described thus: Rabbit stomach submucosal injection. As to conditions: 0.5 ml injected, 25G needle, observed 30 min. The format is in vivo, New Zealand rabbit. How it is done: After a New Zealand rabbit was fastened for 24 hours, injection anesthesia was conducted from the ear vein, the abdomen was then opened, afterwards a stoma was made in the anterior wall of the stomach to expose a stomach mucosa, and 0.5 ml of normal saline was injected into a posterior submucosal layer using a 25G needle. After being observed for 30 min, the rabbit was sacrificed, a tissue was then taken out and fixed in formalin for 2 days, embedded by paraffin, sectioned, and finally stained with hematoxylin and eosin (FIG. 8A). 0.5 ml of a 10 mg/ml sodium hyaluronate solution (FIG. 8B) and 0.5 ml of a 3% peptides ① water solution (FIG. 8C) were injected by the same method.

In series [5] the test system is colonic mucosa (submucosal layer). The series can be described thus: Colonic submucosal injection of rabbits. The series is classed as in vivo, New Zealand rabbit. As to conditions: 0.5 ml injected, 25G needle, observed 30 min; colon. The method, then:
A New Zealand rabbit was fastened for 24 hours, injection of anesthesia was conducted via the ear vein, the abdomen was then opened, afterwards an open cutting was conducted along a midline of a colon to expose the colonic mucosa, 0.5 ml of normal saline was injected into the submucosal layer using a 25G needle. After observing for 30 min, the rabbit was sacrifice, a tissue was then taken out and fixed in formalin for 2 days, embedded by paraffin, sectioned, and finally stained with hematoxylin and eosin (FIG. 9B). 0.5 ml of a 10 mg/ml sodium hyaluronate solution (FIG. 9C) and 0.5 ml of a 3% peptide aqueous solution ① (FIG. 9D) were injected by the same method. An untreated normal tissue was used as a control (FIG. 9A).

The mark [6] stands for this setting: 3% peptide aqueous solution sprayed onto liver wound.

Experimental findings from US20230310702A1, “SELF-ASSEMBLING PEPTIDES, PREPARATION METHODS, SELF-ASSEMBLING PEPTIDE FORMULATIONS AND USE” (Success Bio-Tech Co., Ltd., priority 2020, published 2023) are described below.

Entries after “also recorded” stand apart in the source; their conditions may differ.

As to “AC-Arg-Ala-Asp-Ala-Arg-Ala-Asp-Ala-Arg-Ala-Asp-Ala-Arg-Ala-Asp-Ala- amide [compound ⑤]”, the storage modulus result in series [1] was “less than 700 pa”. Also, the Viscosity in series [2] (concentration 1%) is recorded as 955.17 mPa·s; in series [2] (concentration 1%, listed as AC-(RADA)4-amide), “high viscosity; also recorded: high viscosities”; in series [2] (concentration 2%), 1817.96 mPa·s; in series [2] (concentration 2.5%), 2514.57 mPa·s. Also, the fluidity of solution result in series [3] (concentration of 2.5%) is recorded as “almost lost fluidity”. In addition, the viscosity during dissolution result in series [3] was “increased with the increase of the concentrations”.

Take “AC-Arg-Val-Asp-Val-Arg-Val-Asp-Val-amide (Ac-RVDVRVDV-NH2) [comparison peptide without Pro in the viscosity test]”: the Viscosity is recorded as 658.25 mPa·s in series [2] (concentration 1%); “high viscosities” in series [2] (concentration 1%, listed as AC-RVDVRVDV-amide); 1546.21 mPa·s in series [2] (concentration 2%).

Consider “AC-Pro-Arg-Val-Asp-Val-Arg-Pro-Asp-Val-Arg-Val-Asp-Pro-amide (Ac-PRVDVRPDVRVDP-NH2) [compound ④]”, for which the viscosity during dissolution result in series [3] is recorded as “increased with the increase of the concentrations”.

On to “AC-Pro-Arg-Val-Asp-Val-Arg-Val-Asp-Pro-amide (Ac-PRVDVRVDP-NH2) [compound ①]”, for which the Viscosity result in series [2] (concentration 3%) was “Under the detection limit”. Moreover, the Viscosity result in series [2] (concentration 4%) was “No viscosity numerical value was detected; also recorded: Under the detection limit”. The fluidity of solution result in series [3] (before gelation) is recorded as “good fluidity”. The “time until no blood flowed out” value with rabbit back skin wound (3% peptide aqueous solution sprayed onto back skin incision) was “about 20 s”. The “gel formation on the wound” value with rabbit back skin wound (3% peptide aqueous solution sprayed onto back skin wound) was “formed immediately”. In the series with rabbit back skin wound (3% peptide aqueous solution, back skin wound), the “bleeding after hydrogel covering the surface was removed” value was “no blood oozed out”. Further, in the series with liver wound (setting [6]), the “gel formation on contact with blood” value is listed as “formed immediately” and the “time until bleeding completely stopped” value is “about 15 s”. Besides, in the series with liver wound (3% peptide aqueous solution, liver wound), the “hemostasis after excess hydrogel was removed” value is given as “hemostasis still obtained”. The “submucosal cushion layer (hematoxylin and eosin staining)” value in series [4] was “fine and tight, and not loose”. In series [5], the “submucosal filling (hematoxylin and eosin staining)” value is on record as “filled with the peptide gel”.

For the substance “AC-Pro-Arg-Val-Asp-Val-Arg-Val-Asp-Val-amide (Ac-PRVDVRVDV-NH2) [compound ③]”, the viscosity during dissolution entry in series [3] is “increased with the increase of the concentrations”.

With “AC-Pro-Lys-Val-Glu-Val-Lys-Val-Glu-Pro-amide (Ac-PKVEVKVEP-NH2) [compound ②]”, the Viscosity entry is reported as “Under the detection limit” in series [2] (concentration 3%) and “No viscosity numerical value was detected; also recorded: Under the detection limit” in series [2] (concentration 4%). In series [3] (before gelation), the fluidity of solution entry was “good fluidity”.
